Changes are numbered by the printed parent chain. Each block holds one binder with its values, some of them ahead of it.
How the values were obtained:
[1] = molecular target: T1, human c-kit (recombinant, on BIAcore chip or beads) (human, UniProt P10721 26-524); assay: BIAcore, c-kit on SA chip
T1 construct: extracellular domain; also called hcKIT; biotinylated human c-kit
Procedure: All unique dAb clones were expressed in 50 ml cultures (OnEX plus carbenicillin) overnight at 37° C. and purified on protein A (VH dAbs) or protein L (VK dAbs). Purified dAbs were passed over a SA BIAcore chip coated with either human or mouse c-kit at 1 μM to identify those dAbs that bound specifically to either human or murine c-kit.

[2] = molecular target: T2, human ventricular myosin light chain 1, GlySer(His)6 tag (human, UniProt P08590 1-195, limits assumed); assay: BIAcore, vMLC-1 immobilised
T2 construct: also called human vMLC-1; vMLC1-6xHIS
Procedure: (§1) Affinity of all 8 humanised mAbs was determined by BIAcore as described above.

[3] = molecular target: T3, mouse ventricular myosin light chain 1, GlySer(His)6 tag (mouse, UniProt P09542 1-204); assay: BIAcore, vMLC-1 immobilised
T3 construct: also called mouse vMLC-1
Procedure: as §1

T2 sequence (P08590 other isoform, or with tags, fused parts or gaps limits assumed): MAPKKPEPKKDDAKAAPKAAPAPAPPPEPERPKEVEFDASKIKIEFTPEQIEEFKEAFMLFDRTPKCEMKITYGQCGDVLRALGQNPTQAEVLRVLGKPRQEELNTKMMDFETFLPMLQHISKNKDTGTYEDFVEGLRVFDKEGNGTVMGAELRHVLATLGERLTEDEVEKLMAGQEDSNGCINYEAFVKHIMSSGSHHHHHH
T1 sequence (P10721 26-524): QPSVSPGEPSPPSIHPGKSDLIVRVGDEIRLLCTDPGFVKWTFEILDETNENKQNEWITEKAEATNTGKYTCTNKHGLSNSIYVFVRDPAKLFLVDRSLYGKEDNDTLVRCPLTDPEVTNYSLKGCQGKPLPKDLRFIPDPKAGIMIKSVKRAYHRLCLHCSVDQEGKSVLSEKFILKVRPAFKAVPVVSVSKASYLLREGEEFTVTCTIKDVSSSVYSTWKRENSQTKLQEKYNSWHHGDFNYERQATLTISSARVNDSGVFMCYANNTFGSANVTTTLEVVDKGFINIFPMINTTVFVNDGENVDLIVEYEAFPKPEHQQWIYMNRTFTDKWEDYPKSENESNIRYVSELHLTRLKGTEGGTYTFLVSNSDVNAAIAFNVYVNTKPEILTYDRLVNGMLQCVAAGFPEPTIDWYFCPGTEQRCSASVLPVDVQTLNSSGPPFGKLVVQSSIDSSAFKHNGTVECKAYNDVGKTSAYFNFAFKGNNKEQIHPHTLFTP
T3 sequence (P09542 other isoform, or with tags, fused parts or gaps): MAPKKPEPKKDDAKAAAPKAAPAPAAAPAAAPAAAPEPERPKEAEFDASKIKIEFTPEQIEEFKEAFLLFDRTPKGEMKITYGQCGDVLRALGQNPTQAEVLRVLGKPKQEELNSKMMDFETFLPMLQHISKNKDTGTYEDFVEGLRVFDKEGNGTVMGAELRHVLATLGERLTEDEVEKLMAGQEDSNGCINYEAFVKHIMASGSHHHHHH

B1: DOM28h-73 (other)
chain: EVQLLESGGGLVQPGGSLRLSCAASGFTFDDYWMQWVRQAPGKGLEWVSSISDEGARTYYADSVKGRFTISRDNSKNTLYLQMNSLRAEDTAVYYCAEYPGLAHFGEDFDYWGQGTLVTVSS
notes: dAb, C-terminal FLAG tag (pDOM10)
- Kd [1]: 1300 nM

B3: DOM28h-20 (other)
chain: DIQMTQSPSSLSASVGDRVTITCRASRSISDELTWYQQKPGKAPKLLISWGSSLQSGVPSRFSGSGSGTDFTLTISSLQPEDFATYYCLQTWELPVTFGQGTKVEIKR
notes: as for B1
- Kd [1]: 1000 nM

B5: DOM28h-54 (other)
chain: EVQLLESGGGLVQPGGSLRLSCAASGFTFESYDMSWVRQAPGKGLEWVSGIYPDGGATYYADSVKGRFTISRDNSKNTLYLQMNSLRAEDTAVYYCAKGEPNLFDYWGQGTLVTVSS
notes: as for B1
- Kd [1]: 490 nM

B7: humanised 39-15 mAb 4-1:1-3 (antibody, human IgG1, kappa, V domains shown)
VH: QVQLVQSGAEVKKPGASVKVSCKASGYTFTTYWIHWVRQAPGQRLEWMGAIYPGDGDTRYTQNFKDRVTITRDTSASTAYMELSSLRSEDMAVYYCAREGTPPFTTATFAMAYWGQGTLVTVSS
VL: DIVMTQSPDSLAVSLGERATINCKSSQSLLYSRTRKNYLAWYQQKPGQPPKLLIYWASTRQSGVPDRFSGSGSGTDFTLTISSLQAEDVAVYYCKQSYNLFTFGQGTKLEIKR
notes: human IgG1 kappa
- Kd [2]: 0.00825 nM
- koff [2]: 1.52e-05 s⁻¹
- kon [2]: 1.84e+06 M⁻¹ s⁻¹
- Kd [3]: 0.0396 nM
- koff [3]: 6.6e-05 s⁻¹
- kon [3]: 1.67e+06 M⁻¹ s⁻¹

B11: DOM28h-7 (other)
chain: DIQMTQSPSSLSASVGDRVTITCRASSNIDDDLGWYQQKPGKAPKLLIGWSSDLQSGVPSRFSGSGSGTDFTLTISSLQPEDFATYYCAQWWRGPATFGQGTKVEIKR
notes: as for B1
- Kd [1]: 1400 nM

B12: DOM28h-26 (other)
chain: B11 chain with S27R, D32E, G34A, G49A, S51G, A89G, W91F, W92R, A96L
notes: as for B1
- Kd [1]: 621 nM

Continued, values first:

- Kd [1]: 218 nM
B2: DOM28h-79 (other)
chain: EVQLLESGGGLVQPGGSLRLSCAASGFTFKNYDMSWVRQAPGKGLEWVSGIWDDGWATYYADSVKGRFTISRDNSKNTLYLQMNSLRAEDTAVYYCAKGAATPGQTIFDYWGQGTLVTVSS
notes: as for B1

- Kd [1]: 233 nM
B4: DOM28h-78 (other)
chain: EVQLLESGGGLVQPGGSLRLSCAASGFTFEHYPMGWVRQAPGKGLEWVSHISYDGTDTYYADSVKGRFTISRDNSKNTLYLQMNSLRAEDTAVYYCAKFHNQWDIYSFDYWGQGTLVTVSS
notes: as for B1

- koff [2]: 2.17e-05 s⁻¹
- koff [3]: 8.8e-05 s⁻¹
B6: humanised 39-15 mAb 1-39:1-3 (antibody, V domains shown)
VH: B7 VH
VL: DIQMTQSPSSLSASVGDRVTITCKSSQSLLYSRTRKNYLAWYQQKPGKAPKLLIYWASTRQSGVPSRFSGSGSGTDFTLTISSLQPEDFATYYCKQSYNLFTFGQGTKLEIKR

- Kd [2]: 0.0128 nM
- koff [2]: 1.87e-05 s⁻¹
- kon [2]: 1.46e+06 M⁻¹ s⁻¹
- Kd [3]: 0.0589 nM
- koff [3]: 7.78e-05 s⁻¹
- kon [3]: 1.32e+06 M⁻¹ s⁻¹
B8: humanised 39-15 mAb 4-1:1-8 (antibody, V domains shown)
VH: B7 VH with P41T, R44G, I70M, D73N, A76I, M91T
VL: B7 VL

- koff [2]: 3.41e-05 s⁻¹
- koff [3]: 0.000122 s⁻¹
B9: humanised 39-15 mAb 1-39:1-46 (antibody, V domains shown)
VH: B7 VH with R44G, I70M, A76T, A79V, M91T
VL: B6 VL

- Kd [2]: 0.00818 nM
- koff [2]: 1.63e-05 s⁻¹
- kon [2]: 1.99e+06 M⁻¹ s⁻¹
- Kd [3]: 0.0426 nM
- koff [3]: 7.65e-05 s⁻¹
- kon [3]: 1.79e+06 M⁻¹ s⁻¹
B10: humanised 39-15 mAb 4-1:1-46 (antibody, human IgG1, V domains shown)
VH: B7 VH with R44G, I70M, A76T, A79V, M91T
VL: B7 VL
notes: human IgG1 kappa
